{"source": "paper PMC6879612", "about": "(2019)", "binders": {"B1": {"name": "P1C1gl (germline sequence converted P1C1), human IgG1 (antibody, V domains shown)", "VH": "QVQLQESGPGLVKPSQTLSLTCTVSGGSISSGGYYWSWIRQHPGKGLEWIGYIYYSGSTYYNPSLKSRVTISVDTSKNQFSLKLSSVTAADTAVYYCARENFGAFDHWGQGTLVTVSS", "VL": "QSVLTQPPSVSGAPGQRVTISCTGSSSNIGADYETHWYQQLPGTAPKLLIYGNTNRPSGVPDRFSGSKSGTSASLAITGLQAEDEADYYCQSYDSNLSAWVFGGGTKLTIL"}}, "biological_target": "p53_(125–134)/HLA-A24 pMHC, soluble recombinant (human | , UniProt P61769 21-119; P04637 125-134, biotin where the biotinylated pMHC was used (site not stated))", "experiment": "SPR", "data": [{"binder": "B1", "values": [{"measurement": "koff", "value": 0.139, "unit": "s⁻¹"}]}]}
